How the values were obtained:
[1] = biological target: LDL receptor (LDLR) on human glioblastoma multiforme cells (human) (UniProt P01130); test: ^125I-LDL saturation binding to SF-767 cells
[2] = biological target: LDL receptor (LDLR) on human glioblastoma multiforme cells (human) (UniProt P01130); test: ^125I-LDL saturation binding to A-172 cells
[3] = biological target: LDL receptor (LDLR) on human glioblastoma multiforme cells (human) (UniProt P01130); test: ^125I-LDL saturation binding to SF-763 cells
[4] = biological target: LDL receptor (LDLR) on human glioblastoma multiforme cells (human) (UniProt P01130); test: ^125I-LDL saturation binding to U-251 MG cells (average of 2 experiments)
[5] = biological target: LDL receptor (LDLR) on human glioblastoma multiforme cells (human) (UniProt P01130); test: ^125I-LDL saturation binding to U-343 MG cells
[6] = biological target: LDL receptor (LDLR) on human glioblastoma multiforme cells (human) (UniProt P01130); test: ^125I-LDL saturation binding to SF-539 cells

With “native plasma LDL (low density lipoprotein; LDLR ligand apoB100 on its surface), P04114 28-4563” the Bmax (ng/mg cell protein) [1] was 793, the Bmax (ng/mg cell protein) [2] was 1400 and the Bmax (ng/mg cell protein) [3] was 900. The Bmax (ng/mg cell protein) [4] was 225, the Bmax (ng/mg cell protein) [5] was 510 and the Bmax (ng/mg cell protein) [6] was 310.
